In this data set the target is T1, Whn (FoxN1) DNA binding domain, WhnDBD (UniProt Q61575 271-367).
T1 sequence: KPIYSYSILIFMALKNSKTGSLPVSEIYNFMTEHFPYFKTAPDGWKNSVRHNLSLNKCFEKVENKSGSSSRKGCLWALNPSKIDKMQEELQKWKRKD
As to the kind of experiment: EMSA. (In general: In EMSA bound probe runs differently from free probe, usually more slowly.)

B1: MUT (S1P with core CG to TA) (dsDNA)
DNA 1: CTCCTCCCTGCGCGAAGCGGAAGTGATACGAGGCGTAGCGGAAGTT
DNA 2: AACTTCCGCTACGCCTCGTATCACTTCCGCTTCGCGCAGGGAGGAG
For the molecule B1, the binding result is listed as “no binding”.

The values are drawn from paper PMC3083827.
